Measured values published in patent publication US20020115169A1.

Target: HIV-1 Rev protein (recombinant, expressed in E. coli, refolded) (HIV-1)
Experiment: cell-based or functional assay

Q: With “nucleolar protein B23.1 (recombinant, produced in E. coli) (from UniProt P13084 1-292)” as the substance, how does the % inhibition of temperature-dependent Rev aggregation (turbidity at 360 nm, 20 minute time point) versus molar ratio of B23 to Rev (mol B23 per mol Rev) read?
A: Its % inhibition of temperature-dependent Rev aggregation (turbidity at 360 nm, 20 minute time point) versus molar ratio of B23 to Rev (mol B23 per mol Rev) is 1.
